This note sets out measurements from paper PMC12395305 (ACS Central Science, 2025).

For this test, the target named is T1, green fluorescent protein (Aequorea victoria, engineered EGFP-type …).
T1 construct: green fluorescent protein; pI 5.4; also called GFP; GFP-wt; source: produced by the authors; expression and purification in the Supplementary Methods
The test can be described thus: SPR; αGFP nanobody variants and GFP; constants in Table S1; format and conditions not shown. To be noted: both partners purified.

B1: αGFP-S54C (VHH)
VHH: QVQLVESGGALVQPGGSLRLSCAASGFPVNRYSMRWYRQAPGKEREWVAGMSCAGDRSSYEDSVKGRFTISRDDARNTVYLQMNSLKPEDTAVYYCNVNVGFEYWGQGTQVTVSS
notes: as the chain of m1 (nanobody chain of PDB 3OGO) with S54C; In the functional rows it carries linker 3c-rho on C54 (PEABS αGFP-S54-3c-rho); also called cysteine mutant; αGFP-S54C nanobody; source: bacterial expression vector, expressed and purified
On to B1, for which the “fold reduction of affinity against the wild type” value worked out at 25 fold.
